This is an account of results in paper doi:10.1101/317909.

The data set addresses T1, ZC3H12B PIN-ZnF fragment (human, UniProt Q5HYM0 179-397).
T1 sequence: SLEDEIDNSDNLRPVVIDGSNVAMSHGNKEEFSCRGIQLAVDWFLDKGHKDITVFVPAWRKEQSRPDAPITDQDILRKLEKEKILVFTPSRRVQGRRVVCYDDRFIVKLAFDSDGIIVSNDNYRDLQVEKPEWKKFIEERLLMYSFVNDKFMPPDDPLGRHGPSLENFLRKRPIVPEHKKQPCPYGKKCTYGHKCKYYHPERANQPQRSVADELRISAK
The experiment in a line: X-ray crystallography.

B1: 21-nt HTR-SELEX-enriched RNA (ssRNA)
RNA: AAUGCGACAGUCGGUAGCAUC
modifications: phosphorothioate bond between nt 1 and 2 (5' end)
On to B1, for which the binding result is recorded as “binds”.
